Target: Factor X (FX), P00742
Sequence (P00742 whole entry, looked up): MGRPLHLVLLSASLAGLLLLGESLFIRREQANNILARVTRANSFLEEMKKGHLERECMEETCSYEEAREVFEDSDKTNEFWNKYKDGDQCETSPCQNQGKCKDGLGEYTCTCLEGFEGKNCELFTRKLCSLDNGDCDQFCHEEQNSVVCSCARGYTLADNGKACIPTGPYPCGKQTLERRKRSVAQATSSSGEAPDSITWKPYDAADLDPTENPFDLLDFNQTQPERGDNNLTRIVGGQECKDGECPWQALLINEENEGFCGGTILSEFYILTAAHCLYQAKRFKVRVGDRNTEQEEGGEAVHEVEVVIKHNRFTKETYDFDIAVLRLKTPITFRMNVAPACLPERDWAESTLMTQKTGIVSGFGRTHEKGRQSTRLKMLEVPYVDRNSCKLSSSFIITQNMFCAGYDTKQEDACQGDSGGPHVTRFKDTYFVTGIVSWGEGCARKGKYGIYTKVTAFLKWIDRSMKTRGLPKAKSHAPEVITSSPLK

Protein	% of WT kcat/KM	KM	kcat (s^-1) of FX activation by FIXa variant in the Xase complex (FVIIIa, PC/PS vesicles, Ca2+), fluorogenic FXa read-out	kcat/KM for FX activation (Xase: FVIIIa, PC/PS vesicles, Ca2+)	kcat	catalytic activity (kcat/KM) for activation of FX
FIXa-Y155F/K247N/N249S/R338E/T343R/R403E (protein) chain 1: YNSGKLEEFVQGNLERECMEEKCSFEEAREVFENTERTTEFWKQYVDGDQCESNPCLNGGSCKDDINSYECWCPFGFEGKNCELDVTCNIKNGRCEQFCKNSADNKVVCSCTEGYRLAENQKSCEPAVPFPCGRVSVSQTSKLTR chain 2: VVGGEDAKPGQFPWQVVLNGKVDAFCGGSIVNEKWIVTAAHCVETGVKITVVAGEHNIEETEHTEQNRSVIRIIPHHNYNAAINKYNHDIALLELDEPLVLNSYVTPICIADKEYTNIFLKFGSGYVSGWGRVFHKGRSALVLQYLRVPLVDRATCLESTKFRIYNNMFCAGFHEGGRDSCQGDSGGPHVTEVEGTSFLTGIISWGEECAMKGKYGIYTKVSEYVNWIKEKTKLT	1269%	0.0251 µM	14.6 s⁻¹	5.9e+08 M⁻¹ s⁻¹	–	–
FIXa-Y155F/R338E/R403E/E410N (protein) chain 1: YNSGKLEEFVQGNLERECMEEKCSFEEAREVFENTERTTEFWKQYVDGDQCESNPCLNGGSCKDDINSYECWCPFGFEGKNCELDVTCNIKNGRCEQFCKNSADNKVVCSCTEGYRLAENQKSCEPAVPFPCGRVSVSQTSKLTR chain 2: VVGGEDAKPGQFPWQVVLNGKVDAFCGGSIVNEKWIVTAAHCVETGVKITVVAGEHNIEETEHTEQKRNVIRIIPHHNYNAAINKYNHDIALLELDEPLVLNSYVTPICIADKEYTNIFLKFGSGYVSGWGRVFHKGRSALVLQYLRVPLVDRATCLRSTKFTIYNNMFCAGFHEGGEDSCQGDSGGPHVTEVEGTSFLTGIISWGEECAMKGKYGIYTKVSEYVNWIKNKTKLT	–	–	–	–	5.9 s⁻¹	–
FIXa-Y155F/K247N/N249S/T343R/R403E/E410N (protein) chain 1: YNSGKLEEFVQGNLERECMEEKCSFEEAREVFENTERTTEFWKQYVDGDQCESNPCLNGGSCKDDINSYECWCPFGFEGKNCELDVTCNIKNGRCEQFCKNSADNKVVCSCTEGYRLAENQKSCEPAVPFPCGRVSVSQTSKLTR chain 2: VVGGEDAKPGQFPWQVVLNGKVDAFCGGSIVNEKWIVTAAHCVETGVKITVVAGEHNIEETEHTEQNRSVIRIIPHHNYNAAINKYNHDIALLELDEPLVLNSYVTPICIADKEYTNIFLKFGSGYVSGWGRVFHKGRSALVLQYLRVPLVDRATCLRSTKFRIYNNMFCAGFHEGGRDSCQGDSGGPHVTEVEGTSFLTGIISWGEECAMKGKYGIYTKVSEYVNWIKNKTKLT	635%	0.052 µM	15 s⁻¹	2.9e+08 M⁻¹ s⁻¹	–	–
FIXa-Y155F/K247N/N249S/R338E/T343R/E410N (protein) chain 1: YNSGKLEEFVQGNLERECMEEKCSFEEAREVFENTERTTEFWKQYVDGDQCESNPCLNGGSCKDDINSYECWCPFGFEGKNCELDVTCNIKNGRCEQFCKNSADNKVVCSCTEGYRLAENQKSCEPAVPFPCGRVSVSQTSKLTR chain 2: VVGGEDAKPGQFPWQVVLNGKVDAFCGGSIVNEKWIVTAAHCVETGVKITVVAGEHNIEETEHTEQNRSVIRIIPHHNYNAAINKYNHDIALLELDEPLVLNSYVTPICIADKEYTNIFLKFGSGYVSGWGRVFHKGRSALVLQYLRVPLVDRATCLESTKFRIYNNMFCAGFHEGGRDSCQGDSGGPHVTEVEGTSFLTGIISWGEECAMKGKYGIYTKVSRYVNWIKNKTKLT	391%	0.027 µM	4.8 s⁻¹	1.8e+08 M⁻¹ s⁻¹	–	–
FIXa-K247N/N249S/R338E/T343R/E410N (protein) chain 1: YNSGKLEEFVQGNLERECMEEKCSFEEAREVFENTERTTEFWKQYVDGDQCESNPCLNGGSCKDDINSYECWCPFGFEGKNCELDVTCNIKNGRCEQFCKNSADNKVVCSCTEGYRLAENQKSCEPAVPFPCGRVSVSQTSKLTR chain 2: VVGGEDAKPGQFPWQVVLNGKVDAFCGGSIVNEKWIVTAAHCVETGVKITVVAGEHNIEETEHTEQNRSVIRIIPHHNYNAAINKYNHDIALLELDEPLVLNSYVTPICIADKEYTNIFLKFGSGYVSGWGRVFHKGRSALVLQYLRVPLVDRATCLESTKFRIYNNMFCAGFHEGGRDSCQGDSGGPHVTEVEGTSFLTGIISWGEECAMKGKYGIYTKVSRYVNWIKNKTKLT	676%	0.0275 µM	7.9 s⁻¹	3.1e+08 M⁻¹ s⁻¹	–	–
FIXa variant D85N/K228N/R318Y/R338E/R403E/E410N (protein) chain 1: YNSGKLEEFVQGNLERECMEEKCSFEEAREVFENTERTTEFWKQYVDGDQCESNPCLNGGSCKDDINSYECWCPFGFEGKNCELNVTCNIKNGRCEQFCKNSADNKVVCSCTEGYRLAENQKSCEPAVPFPCGRVSVSQTSKLTR chain 2: VVGGEDAKPGQFPWQVVLNGKVDAFCGGSIVNEKWIVTAAHCVETGVNITVVAGEHNIEETEHTEQKRNVIRIIPHHNYNAAINKYNHDIALLELDEPLVLNSYVTPICIADKEYTNIFLKFGSGYVSGWGRVFHKGYSALVLQYLRVPLVDRATCLESTKFTIYNNMFCAGFHEGGRDSCQGDSGGPHVTEVEGTSFLTGIISWGEECAMKGKYGIYTKVSEYVNWIKNKTKLT	–	–	–	–	6 s⁻¹	–
FIXa variant Y155F/K228N/R318Y/R338E/R403E/E410N (protein) chain 1: YNSGKLEEFVQGNLERECMEEKCSFEEAREVFENTERTTEFWKQYVDGDQCESNPCLNGGSCKDDINSYECWCPFGFEGKNCELDVTCNIKNGRCEQFCKNSADNKVVCSCTEGYRLAENQKSCEPAVPFPCGRVSVSQTSKLTR chain 2: VVGGEDAKPGQFPWQVVLNGKVDAFCGGSIVNEKWIVTAAHCVETGVNITVVAGEHNIEETEHTEQKRNVIRIIPHHNYNAAINKYNHDIALLELDEPLVLNSYVTPICIADKEYTNIFLKFGSGYVSGWGRVFHKGYSALVLQYLRVPLVDRATCLESTKFTIYNNMFCAGFHEGGRDSCQGDSGGPHVTEVEGTSFLTGIISWGEECAMKGKYGIYTKVSEYVNWIKNKTKLT	–	–	–	–	6.7 s⁻¹	–
FIXa-K247N/N249S/R338E/T343R/R403E (protein) chain 1: YNSGKLEEFVQGNLERECMEEKCSFEEAREVFENTERTTEFWKQYVDGDQCESNPCLNGGSCKDDINSYECWCPFGFEGKNCELDVTCNIKNGRCEQFCKNSADNKVVCSCTEGYRLAENQKSCEPAVPFPCGRVSVSQTSKLTR chain 2: VVGGEDAKPGQFPWQVVLNGKVDAFCGGSIVNEKWIVTAAHCVETGVKITVVAGEHNIEETEHTEQNRSVIRIIPHHNYNAAINKYNHDIALLELDEPLVLNSYVTPICIADKEYTNIFLKFGSGYVSGWGRVFHKGRSALVLQYLRVPLVDRATCLESTKFRIYNNMFCAGFHEGGRDSCQGDSGGPHVTEVEGTSFLTGIISWGEECAMKGKYGIYTKVSEYVNWIKEKTKLT	1215%	0.0263 µM	14.6 s⁻¹	5.6e+08 M⁻¹ s⁻¹	–	improved activity when combined with other mutations
FIXa variant I251S/R318Y/R338E/R403E/E410N (protein) chain 1: YNSGKLEEFVQGNLERECMEEKCSFEEAREVFENTERTTEFWKQYVDGDQCESNPCLNGGSCKDDINSYECWCPFGFEGKNCELDVTCNIKNGRCEQFCKNSADNKVVCSCTEGYRLAENQKSCEPAVPFPCGRVSVSQTSKLTR chain 2: VVGGEDAKPGQFPWQVVLNGKVDAFCGGSIVNEKWIVTAAHCVETGVKITVVAGEHNIEETEHTEQKRNVSRIIPHHNYNAAINKYNHDIALLELDEPLVLNSYVTPICIADKEYTNIFLKFGSGYVSGWGRVFHKGYSALVLQYLRVPLVDRATCLESTKFTIYNNMFCAGFHEGGRDSCQGDSGGPHVTEVEGTSFLTGIISWGEECAMKGKYGIYTKVSEYVNWIKNKTKLT	–	–	–	–	4.8 s⁻¹	–
FIXa variant D104N/K106S/I251S/R318Y/R338E/R403E/E410N (protein) chain 1: YNSGKLEEFVQGNLERECMEEKCSFEEAREVFENTERTTEFWKQYVDGDQCESNPCLNGGSCKDDINSYECWCPFGFEGKNCELDVTCNIKNGRCEQFCKNSANNSVVCSCTEGYRLAENQKSCEPAVPFPCGRVSVSQTSKLTR chain 2: VVGGEDAKPGQFPWQVVLNGKVDAFCGGSIVNEKWIVTAAHCVETGVKITVVAGEHNIEETEHTEQKRNVSRIIPHHNYNAAINKYNHDIALLELDEPLVLNSYVTPICIADKEYTNIFLKFGSGYVSGWGRVFHKGYSALVLQYLRVPLVDRATCLESTKFTIYNNMFCAGFHEGGRDSCQGDSGGPHVTEVEGTSFLTGIISWGEECAMKGKYGIYTKVSEYVNWIKNKTKLT	–	–	–	–	5.5 s⁻¹	–
FIXa-Y155F/R318Y/R338E/R403E (protein) chain 1: YNSGKLEEFVQGNLERECMEEKCSFEEAREVFENTERTTEFWKQYVDGDQCESNPCLNGGSCKDDINSYECWCPFGFEGKNCELDVTCNIKNGRCEQFCKNSADNKVVCSCTEGYRLAENQKSCEPAVPFPCGRVSVSQTSKLTR chain 2: VVGGEDAKPGQFPWQVVLNGKVDAFCGGSIVNEKWIVTAAHCVETGVKITVVAGEHNIEETEHTEQKRNVIRIIPHHNYNAAINKYNHDIALLELDEPLVLNSYVTPICIADKEYTNIFLKFGSGYVSGWGRVFHKGYSALVLQYLRVPLVDRATCLESTKFTIYNNMFCAGFHEGGRDSCQGDSGGPHVTEVEGTSFLTGIISWGEECAMKGKYGIYTKVSEYVNWIKEKTKLT	–	–	–	–	5.1 s⁻¹	–
FIXa-Y155F/R318Y/R403E/E410N (protein) chain 1: YNSGKLEEFVQGNLERECMEEKCSFEEAREVFENTERTTEFWKQYVDGDQCESNPCLNGGSCKDDINSYECWCPFGFEGKNCELDVTCNIKNGRCEQFCKNSADNKVVCSCTEGYRLAENQKSCEPAVPFPCGRVSVSQTSKLTR chain 2: VVGGEDAKPGQFPWQVVLNGKVDAFCGGSIVNEKWIVTAAHCVETGVKITVVAGEHNIEETEHTEQKRNVIRIIPHHNYNAAINKYNHDIALLELDEPLVLNSYVTPICIADKEYTNIFLKFGSGYVSGWGRVFHKGYSALVLQYLRVPLVDRATCLRSTKFTIYNNMFCAGFHEGGRDSCQGDSGGPHVTEVEGTSFLTGIISWGEECAMKGKYGIYTKVSEYVNWIKNKTKLT	–	–	–	–	2.9 s⁻¹	–
FIXa variant Y259F/K265T/Y345T (protein) chain 1: YNSGKLEEFVQGNLERECMEEKCSFEEAREVFENTERTTEFWKQYVDGDQCESNPCLNGGSCKDDINSYECWCPFGFEGKNCELDVTCNIKNGRCEQFCKNSADNKVVCSCTEGYRLAENQKSCEPAVPFPCGRVSVSQTSKLTR chain 2: VVGGEDAKPGQFPWQVVLNGKVDAFCGGSIVNEKWIVTAAHCVETGVKITVVAGEHNIEETEHTEQKRNVIRIIPHHNFNAAINTYNHDIALLELDEPLVLNSYVTPICIADKEYTNIFLKFGSGYVSGWGRVFHKGRSALVLQYLRVPLVDRATCLRSTKFTITNNMFCAGFHEGGRDSCQGDSGGPHVTEVEGTSFLTGIISWGEECAMKGKYGIYTKVSRYVNWIKEKTKLT	–	–	–	–	1.7 s⁻¹	–
